Measured values from the supplement of paper PMC9170038.

Test system: MS2 coat protein
Assay: apparent KD of MS2 coat protein; designed switch direction (-1 OFF switch, 1 ON switch): -1; higher = weaker reporter binding
Summary of the method: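 The apparent KD reported per design is the median over clusters of curve fits to normalised cluster fluorescence. The RNA switches were transcribed on Illumina chips by stalled E. coli RNA polymerase. SNAP-549-labelled MS2 coat protein was titrated from 0.7 or 1.5 nM, doubling up to 3 µM, in Tris-HCl pH 7.5 buffer containing KCl, MgCl2, BSA, DTT, tRNA and Tween-20, with no input, 200 uM small-molecule ligand, or an oligonucleotide input.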

[1] = Eterna round: R95, input ligand: microRNA oligo, concentration not stated
[2] = Eterna round: R95, input ligand: FMN 200 uM
[3] = Eterna round: R95, input ligand: none
[4] = input ligand: microRNA oligo, concentration not stated

| Sequence | apparent KD of MS2 coat protein (input ligand: FMN 200 uM) | apparent KD of MS2 coat protein (input ligand: none) | apparent KD of MS2 coat protein [1] | apparent KD of MS2 coat protein [2] | apparent KD of MS2 coat protein [3] | apparent KD of MS2 coat protein [4] |
| --- | --- | --- | --- | --- | --- | --- |
| AAGUCGACGGUGAGGAUAUUAGUUGAACGACAGAUUAAGAAGGUACAUGAGGAUCACCCAUGUGGGUAGCGUUG [Brourd's EX4 #78] (Eterna round: R97, puzzle: Brourd's mod of Exclusion 4) | 73.2 nM | 80.9 nM | – | – | – | – |
| AAUAAAUAGGAGGAUAUCGUAUCGGAAACGAUACGAGAAGGUCUAACAUGAGGAUCACCCAUGUUCCUCAAUAA [Mat - Exclusion 6 - Eli Mod - D45] (puzzle: Exclusion 6) | – | – | 39.4 nM | – | – | – |
| AAUAACAAGUAAGAUCCUAACAUGAGGAUCACCCAUGUGCUCGUCUUAUAAAGUACUAUCACGAAAGUGAUAGUACA [Sensor 3, v1 - 46] (puzzle: Sensor v3, turn-off variant 1) | – | – | 153 nM | 36.5 nM | 43.1 nM | – |
| AAUAACAAGUUGAUCCUUCACAUGAGGAUCACCCAUGUGCUCGUCUUGUAAAGUACUAUCACGAAAGUGAUAGUACA (Eterna round: R97, puzzle: Sensor, turn-off variant 1) | 256 nM | 249 nM | – | – | – | – |
| AAUAACAGAGGAUAUACUAUUUUAUGUAUUUAUUAUUUUGAACAUGAGGAUCACCCAUGUAGAAGGCUGAGUAA [JMF 35] (puzzle: Exclusion 2) | – | – | 25.3 nM | – | – | – |
| AAUAACAGAGGAUAUACUAUUUUAUGUGUUUGUUAUUUUAAACAUGAGGAUCACCCAUGUAGAAGGCUGAAUGA [JMF 56] (puzzle: Exclusion 2) | – | – | 25 nM | – | – | – |
| AAUAACAGGCCGAUCCUAAACAUGAGGAUCACCCAUGUGCUCGUCUUGUAAAGUACUAUCACGAAAGUGAUAGUACA [Sensor v3, turn-off variant 1 (MOD of Eli's v1-59 v.2 )] (puzzle: Sensor v3, turn-off variant 1) | – | – | 419 nM | 39.9 nM | 31.4 nM | – |
| AAUAACAUGUUGAUCAAAUACAUGAGGAUCACCCAUGUAAGCUUUUUGUUCGUAGAUUAACACUAAUAAUAAUAAUA [Stov1new/2-B] (Eterna round: R97, puzzle: Sensor, turn-off variant 1) | 15.8 nM | 16.7 nM | – | – | – | – |
| AAUAAGUAUGUGAGGAUAUUGAGGAGGAGGAGGGACAAGAAGGCACAUGAGGAUCACCCAUGUAGGAAAGGACG [JR_BMEx4_Sub002] (Eterna round: R97, puzzle: Brourd's mod of Exclusion 4) | 46.9 nM | 28 nM | – | – | – | – |
| AAUAAGUGAGGAUAUGGAAUAAUAAAUAAAAUAAUAAAUAACCAGAAGGCACAUGAGGAUCACCCAUGUAAUAA [JMF's solution 3] (puzzle: Exclusion 4) | – | – | 23.7 nM | 27.4 nM | 21.4 nM | – |
| AAUAAUAAGGAGGAUAUCGUAUCGGAAACGAUACGAGAAGGCCUAACAUGAGGAUCACCCAUGUUCCUCAAUAA [Fiskers Ex 6 - 2] (puzzle: Exclusion 6) | – | – | 297 nM | 1320 nM | 311 nM | – |
| AAUAAUAAGGAGGAUAUCGUAUCGGAAACGAUACGAGAAGGCCUAACAUGAGGAUCACCCAUGUUCCUUAAUAA [Fiskers Ex 6 - 4] (puzzle: Exclusion 6) | – | – | 22 nM | 33.3 nM | 18.2 nM | – |
| AAUAAUAAGGAGGAUAUCGUAUCGGAAACGAUACGAGAAGGUCUAACAUGAGGAUCACCCAUGUUCCUCAAAUA [Mat - Exclusion 6 - Eli Mod - D44] (puzzle: Exclusion 6) | – | – | 37.1 nM | – | – | – |
| AAUAAUGAGUAGGAUAUCACUAGCGAUAGCUAGUGAGAAGGGCUCACAUGAGGAUCACCCAUGUGUUCCAAUAA [Mod4 Ex6/6-A4 by Brourd] (Eterna round: R97, puzzle: Exclusion 6) | 88.1 nM | 31.2 nM | – | – | – | – |
| AAUACACAUGAGGAUCACCCAUGUCAGGAUAUGCGCAGACAGACAGACAGACAGACGAGCAGAAGGGAUAGGAA [Excls1-IV] (puzzle: Exclusion 1) | – | – | 67.5 nM | 54 nM | 49.3 nM | – |
| AAUACACAUGAGGAUCACCCAUGUUAGGAUAUGAGCAGACAGACAGACAGACAGACGAUCAGAAGGAAUAGGAA [Excls1-V] (puzzle: Exclusion 1) | – | – | 25.4 nM | 26.1 nM | 32.9 nM | – |
| AAUAGCAAGCAAGAUCCUAACAUGAGGAUCACCCAUGUGCUCGUCUUGUAAAGUACUAUCACGAAAGUGAUAGUACA [Sensor 3, v1 - 49] (puzzle: Sensor v3, turn-off variant 1) | – | – | 211 nM | 29.7 nM | 31.9 nM | – |

| Sequence | apparent KD of MS2 coat protein (input ligand: FMN 200 uM) | apparent KD of MS2 coat protein (input ligand: none) | apparent KD of MS2 coat protein [1] | apparent KD of MS2 coat protein [2] | apparent KD of MS2 coat protein [3] | apparent KD of MS2 coat protein [4] |
| --- | --- | --- | --- | --- | --- | --- |
| AAUAGCUGAGGAUAUACAUGAGGAUCACCCAUGUAUUAGUAGGCUGGGAAUAAAUCGUGUAGAAGGCAGGAUGA [Ceerge] (puzzle: Exclusion 3) | – | – | 16.7 nM | – | – | – |
| AAUAGUAAUAAGGAUAUCACUAGCCUCGGCUAGUGAGAAGGUAUUACAUGAGGAUCACCCAUGUGGUCAAUUAA [E6/4-A2] (Eterna round: R97, puzzle: Exclusion 6) | 1110 nM | 1130 nM | – | – | – | – |
| AAUCAACAUGAGGAUCACCCAUGUGAGGAUAUACGCAUGCAUGCAUGCAUGCAUGCAAGUAGAAGGCACAAUAC [Design #17] (Eterna round: R97, puzzle: Exclusion 1) | 42 nM | 27.9 nM | – | – | – | – |
| AAUCGACAUGAGGAUCACCCAUGUUAGGAUAUGCGGAAUCGGUCAAUCAAUCGAUCAAGCAGAAGGGACGGGUU [Candy Rainbow] (puzzle: Exclusion 1) | – | – | 27.4 nM | 29.1 nM | 34.2 nM | – |
| AAUGACUGAGGAUAUUGUACUGCUGACAUGAGGAUCACCCAUGUAUGCUAACUCGGCCGUCGAGAAGGCAGUCAUG [BotMod 24 - Jieux - Exclusion 5] (Eterna round: R97, puzzle: Exclusion 5) | 18.5 nM | 28 nM | – | – | – | – |
| AAUGAUUGACGAGGAUAUUGUGUUAGAUCACGACGAGAAGGCGUCUGUCACAUGAGGAUCACCCAUGUGAGCCUUGUGGAUAGA [Ex NG1 #77] (Eterna round: R96, puzzle: Exclusion NG 1) | 618 nM | 378 nM | – | – | – | 399 nM |
| AAUGCGGACAAAGGAUAUUGCGGUGACCGGCUCGGCGUACCGAGCCUACAUGAGGAUCACCCAUGUAAGAAGGUUGUCGCUAAA [Mat - Exclusion NG 2 - Mod of JL - D74] (Eterna round: R96, puzzle: Exclusion NG 2) | 43.1 nM | 17.6 nM | – | – | – | 13.8 nM |
| AAUGGUAAAGUCAGGAUAUACGUAAAUCGUACUAGGUAGAAGGGACAUGAGGAUCACCCAUGUAUGAUAGUAAA [Ex4 #31] (Eterna round: R97, puzzle: Brourd's mod of Exclusion 4) | 66 nM | 76 nM | – | – | – | – |
| AAUGUCUGAGGAUAUCGUUUUUUGUACAUGAGGAUCACCCAUGUCCAAUUUUGUAUAUUACGAGAAGGCAGUGGAA [JR_E5_Sub089] (Eterna round: R96, puzzle: Exclusion 5) | 23.9 nM | 15 nM | – | – | – | 10.7 nM |
| AAUGUCUGAGGAUAUCGUUUUUUGUACAUGAGGAUCACCCAUGUCCAAUUUUGUAUAUUACGAGAAGGCAGUGGAA [JR_E5_Sub089] (puzzle: Exclusion 5) | – | – | 14.6 nM | – | – | – |
| AAUUAAGCAAGCAGAUCCCACAUGAGGAUCACCCAUGUGCUCGUCUUAUAAGGUACUGUGACAAAAGUCACGGUACC [Mat - Sensor, turn-off var - Eli Mod - D73] (Eterna round: R97, puzzle: Sensor, turn-off variant 1) | 108 nM | 117 nM | – | – | – | – |
| AAUUAAUUAAUUAAUUAAUACAUGAGGAUCACCCAUGUAAUUUAAGAUCCUUAUACAAGCUUUGAUCUCGUCUUAUA [Stov1/5-A1] (Eterna round: R97, puzzle: Sensor, turn-off variant 1) | 94.5 nM | 106 nM | – | – | – | – |
| AAUUAGCAAGCGAGAUCCCACAUGAGGAUCACCCAUGUGCUCGUCUUAUAUAAGGUACUGUACAAAAGUACGGUACC [Mat - Sensor, turn-off var - Eli Mod - D32] (Eterna round: R97, puzzle: Sensor, turn-off variant 1) | 14.5 nM | 14.1 nM | – | – | – | – |
| AAUUAGCAAGCGAGAUCUCACAUGAGGAUCACCCAUGUGCUCGUCUUAUAAGGUACUGUGACGAAAGUCACGGUACC [Mat - Sensor, turn-off var - Eli Mod - D40] (Eterna round: R97, puzzle: Sensor, turn-off variant 1) | 14.8 nM | 15.8 nM | – | – | – | – |
| AAUUAUUUUUGAGGAUAUGGUAGUGAAACACUACCAGAAGGCGGAAUAAACAUGAGGAUCACCCAUGUGAGCCUGAUGCUUAUG [Ex NG1 #46] (Eterna round: R96, puzzle: Exclusion NG 1) | – | – | – | – | – | 17.9 nM |
| AAUUCACAUGAGGAUCACCCAUGUCAGGAUAUGGUUUCACGUUUUUCUUUUCUUGAUUCCAGAAGGGACAGCUA (puzzle: Exclusion 1) | – | – | 58.6 nM | – | – | – |
| AAUUCGCAAGCGAGAUCCCACAUGAGGAUCACCCAUGUGCUCGUCUUAUAAGGUACUGUGACAAAAGUCACGGUACC [Mat - Sensor, turn-off var - Eli Mod - D84] (Eterna round: R97, puzzle: Sensor, turn-off variant 1) | 14.3 nM | 13.2 nM | – | – | – | – |
